The results in this text go back to the nanobody polyreactivity screen of Harvey et al. (2022).

The nature of the data set: yeast display, Sf9 membrane polyspecificity reagent, FACS + sequencing; frameworks hold sequencing errors. Put shortly: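 In a synthetic yeast display library (Saccharomyces cerevisiae BJ5465), nanobody expression was induced with galactose for 36–48 hours. FACS gates were set low and high (top ~1%) using anti-HA fluorescence for expression and streptavidin fluorescence for binding of the Sf9 membrane reagent. Each polyreactivity label is drawn from the gate of origin.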
On to “QVQLVESGGGLVQAGGSLRLICAASGSTFRYYAMGWYRQAPGKEREFVAAITKGGSRTSYADSVKGRFTISRDNAKNTVYLQMNSLKPEDTAVYYCATAYYGGASQRNYGYWGQGTQVTVSS”, for which the “polyreactivity (PSR sort gate)” value is listed as “high polyreactivity”.

As for “QVQLVESGGGLVQAGGSLRLICAASGSTFVSNAMGWYRQAPGKERELVAAITVSGGRTYYADSVKGRFTISRDNAKNTVYLQMNSLKPEDTAVYYCAAQIYGKYDYWGQGTQVTVSS”, the “polyreactivity (PSR sort gate)” value was “low polyreactivity”.

“QVQLVESGGGLVQAGGSLRLICAASGSTFWGYTMGWYRQAPGKERELVAAITRSSGRTYYADSVKGRFTISRDNAMNTVYLQFHSLKPEDTAVYYWNADAVGRRTWSPYDYWGQGSQVTVSS”: the “polyreactivity (PSR sort gate)” value is reported as “high polyreactivity”.

As for “QVQLVESGGGLVQAGGSLRLICAASGSTFYKYNMGWYRQAPGKERELVAAISGSGTTTYYADTVKGRFTISRDNAKNTVYLQMNSLKPEDTAVYYCAARRFSPGSSGHGYWGQGTQVTVSS”, the “polyreactivity (PSR sort gate)” value is “high polyreactivity”.

Consider “QVQLVESGGGLVQAGGSLRLICAASGSTFYPNAMGWYRPAPGKERELVAAITSAGSTYYADSVKGRFTISRDNAKNTVYLQMNSLKPEDTAVYYCAKRRASRYDWGQGTQVTVSS”, for which the “polyreactivity (PSR sort gate)” value was “high polyreactivity”.

As for “QVQLVESGGGLVQAGGSLRLICAASGSTFYRYAMGWYRQAPGKERELVAAISSSGGSTYYADSVKGRFTISRDIAKNTVYLQMNSLKPEDTAVYYCNRYGSGHSFIYDYWGQGTQVTLSS”, the “polyreactivity (PSR sort gate)” value is “high polyreactivity”.

Consider “QVQLVESGGGLVQAGGSLRLICAASGSTFYYNAMGWYRQAPGKERELVAGITYRGGSTYYADSVKGRFTISRDNAKNTVYLQMNSLKPEDTAVYYCAARHYIWSQYYTRYDYWGQGTQVTVSS”, for which the “polyreactivity (PSR sort gate)” value is on record as “high polyreactivity”.

For the sequence “QVQLVESGGGLVQAGGSLRLICAASGSTIFENVMGWYRQAPGKEREFVAAINTSGGSTYYADSVKGRFTISRDNAKNTVYLQMNILKPEDTAVYYCARDSYWEMDYWGQGTQVTVSS”, the “polyreactivity (PSR sort gate)” value is “low polyreactivity”.

Regarding “QVQLVESGGGLVQAGGSLRLICAASGSTIVWNAMGWYRQAPGKERELVATITLSTGSTYYADSVKGRFTISRDNAKNTVYLQMNSLKPEDTAVYYCNTEIYVDIISVYGYWGQGTQVTVSS”, the “polyreactivity (PSR sort gate)” value is “low polyreactivity”.

Consider “QVQLVESGGGLVQAGGSLRLICAASGSTLIWNAMGWYRQAPGKEMELVAVISFSGVSTYYADSVKGRFTISRDNAKNTVYLQMNSLKPEDTAVYYCAAGRYLYNYYGYVDKYGYWGQGTQVTVSS”, for which the “polyreactivity (PSR sort gate)” value was “low polyreactivity”.

“QVQLVESGGGLVQAGGSLRLICAASGSTLVANAMGGYRQAPGKERELVAAISSGGITYYADSVKGRFTISRDNAKNTVYLQMNSLKPEDTAVYYCAKRGQGFQFGRDYWGQGTQVTVSS”: the “polyreactivity (PSR sort gate)” value was “low polyreactivity”.

Consider “QVQLVESGGGLVQAGGSLRLICAASGSTNYRYAMGWYRQAPGKERELVATISSTGARTNYADSVKGRFTISRDNAKNTDYLQMNSLKPEDTAVYYCAASAPYIYYWGQGTQVTVSS”, for which the “polyreactivity (PSR sort gate)” value was “high polyreactivity”.

In the case of “QVQLVESGGGLVQAGGSLRLICAASGSTSQNKAMGWYRPAPGKERELVAAITWSGDSTYYADSVKGRFTISRDNAKNTVYIQMNSLKPEDSAVYYCAAVSRFFSTYLYDYWGEGTQVTVSS”, the “polyreactivity (PSR sort gate)” value is “low polyreactivity”.

As for “QVQLVESGGGLVQAGGSLRLICAASGTISSLNTMGWYRQAPVKERELVASITWSGGSTYADSVKGRFTISRDNAKNTVYLQMNSLKPEDTAVYYCAKGVWFSRRRYGYWGQGTQVTVSS”, the “polyreactivity (PSR sort gate)” value was “high polyreactivity”.

For the sequence “QVQLVESGGGLVQAGGSLRLICAASGVTFWSDAMGWYRQAPGKEREFVAAITTSAGRTNYADSVKGRFTISRDNAQNTVYLKMNSLKPEDTAVYYCAARSAYTGLGSGFDYWGQGTQVSVSS”, the “polyreactivity (PSR sort gate)” value was “low polyreactivity”.

Consider “QVQLVESGGGLVQAGGSLRLICAASGYTFSYYAMGWYRQAPGKERELVAAINYSGGRTYYADSVKGRFTISRDNAKNTVYLQMNSLKPDDTAVYYCAAYTRNGDYDYWGQGTQVTVSS”, for which the “polyreactivity (PSR sort gate)” value is “high polyreactivity”.

Consider “QVQLVESGGGLVQAGGSLRLICADSGSTFTGNAMGWYRQAPGKERELVAAISRSGGRTYYADSVKGRFTISRDNAKNTVYLQMNSLKPEDTAVYYCNAVRNRGQRTAFDYWGQGTQVTVSS”, for which the “polyreactivity (PSR sort gate)” value was “high polyreactivity”.

With “QVQLVESGGGLVQAGGSLRLICASSGLNFVVYAMGRSRPAPGKERELVAAISSGGGSTYYADSVKGRFTISRDNAKNSVYLQMNSQKPEDTEVYYCNAVDKLYYWRYDYWRQGTQVTVSS”, the “polyreactivity (PSR sort gate)” value is “low polyreactivity”.

As to “QVQLVESGGGLVQAGGSLRLICDASGRIFPWYTMGWYRQAPGKERELVAAITSGGNKDYADSVKGRFTISRDYAKNTVFLQMNSLKPEDTAVYYCAAGPDPLGEDYWGQGTQVTVSS”, the “polyreactivity (PSR sort gate)” value is “low polyreactivity”.

For “QVQLVESGGGLVQAGGSLRLICDASGRTFGPYVMRLYRQAPGKERELVASISSADSRYYADSVKGRFTISRDNAKNTVYLQMNSLKPEDTAVYYCAAPSVGYYDPTDFDYWGQGTQVTVSS”, the “polyreactivity (PSR sort gate)” value is on record as “low polyreactivity”.

Take “QVQLVESGGGLVQAGGSLRLICPASGRIFLTKAIGWYRPAPGIDRELVADISRGGSTYADSVKGRFTISSDNAKNTVYLQINSLKPEDTAVYYCAPDEYSPADSRTRYDYWGQGTQVSVSS”: the “polyreactivity (PSR sort gate)” value is recorded as “low polyreactivity”.

“QVQLVESGGGLVQAGGSLRLIFAASGSIFPDYAMGWYITAPGKERELVAAISRSGGRTSYADSVKGRFTISRDNAKNTVFLQMNSLKPEDTAVYYCNVASRQGSTYDYWGQGTQVTVSS”: the “polyreactivity (PSR sort gate)” value is “high polyreactivity”.

As to “QVQLVESGGGLVQAGGSLRLISAASGFTFAWYTMGWYRQAPGKERELVAAITDSGDSTYYADSVKGRFTISRDNAKNTVYLQMNSLKPEDTAVYYCATRSWYWDIWITEYDYWGQGTQVTVSS”, the “polyreactivity (PSR sort gate)” value is reported as “low polyreactivity”.

In the case of “QVQLVESGGGLVQAGGSLRLISAASGITFDPYAMGWYRQAPGKEREFVAAITRRSASTYYADSVKGRFTISRDNAKNTVYLQMNSLKPEDTALYYCAARGKVPYNYWGQGTQVTVSS”, the “polyreactivity (PSR sort gate)” value is reported as “high polyreactivity”.

Turning to “QVQLVESGGGLVQAGGSLRLISAASVRTFAPYPRGWYREAPGKDRELVAAISSGGGNTYYADSVKGRFTISRDHPKNTVYLLMNSLKPEDTAGYYCNAAQRRGGLGYWGQGTQVTVSS”, the “polyreactivity (PSR sort gate)” value is listed as “high polyreactivity”.

On to “QVQLVESGGGLVQAGGSLRLNCAASGITFSANAMGWYRQATGKERELVASNRSSGGSTYYADSVKGRFTISRDNEKKTVYLQMNSLKPEDTAVYSRNARLGPLYVYRQYDSWGQGTQVTVSS”, for which the “polyreactivity (PSR sort gate)” value is on record as “low polyreactivity”.

On to “QVQLVESGGGLVQAGGSLRLNCAASGRIFDVNAMGWYRQAPGKERELVAAITYSDGSTYYADSLKGRFTISRDTAKNTVYLQMNSLKPEDTAVYYCAATHEPVTPQPYGYWGQGTQVTVSS”, for which the “polyreactivity (PSR sort gate)” value was “low polyreactivity”.

For “QVQLVESGGGLVQAGGSLRLNCAASGRISTYYVMGWYRQAPGKERELVAAINWSDGSTYYADSVKGRFTISRDNAKNTVYFQMNSLKPEDTAVYYCNVDAGVEGGTVDYWGQGTQVTVSS”, the “polyreactivity (PSR sort gate)” value is reported as “low polyreactivity”.

For the sequence “QVQLVESGGGLVQAGGSLRLNCAASGRNLPFYAMGWYRQAPGKERDLVATISWTSDSTYYADSVKGRFTISRDNPKNTVFLQMNSLIREVTGVYYCASVYTYTYASTVIYDHWGQGTQVTVSS”, the “polyreactivity (PSR sort gate)” value is recorded as “low polyreactivity”.

For “QVQLVESGGGLVQAGGSLRLNCAASGSTLARYAMGWYRQAPGKERELVAAITWSGVSTYYADSVKGRFTISRDNAKNTVYLQMISLKPEDTAVYYCNARIFRSPNPYDYWGEGTQVTVSS”, the “polyreactivity (PSR sort gate)” value is given as “high polyreactivity”.

For the sequence “QVQLVESGGGLVQAGGSLRLRCAASARTFRDYAMGCYRQATGKERELVAVIDSGGGTDYADSVKGRFTISRDNAKNTVYLQMNSLKPEDTAVYYCAADSSVRYRDTEDYWGQGTQVTVSS”, the “polyreactivity (PSR sort gate)” value is “low polyreactivity”.

On to “QVQLVESGGGLVQAGGSLRLRCAASGFIFRLYAMGWYIQAPGKERELVASITQGGSTYYADSVKGRFTISRDNAKNTVYLLMNSLKPEDTAVNDCAATYLHVYRRRFYYWGQGTQVSVSS”, for which the “polyreactivity (PSR sort gate)” value is “high polyreactivity”.

“QVQLVESGGGLVQAGGSLRLRCAASGFIFSYYAMGWYRQAPGKERELVAGISYNGNRTYYADSVEGRFTISRDNAKNTVYLQMNSLKPEDTAVYYCNVVCVLGGWYDLEYDYWGQGTQVTVSS”: the “polyreactivity (PSR sort gate)” value is listed as “high polyreactivity”.

As for “QVQLVESGGGLVQAGGSLRLRCAASGFTYSYYAMGWYRQAPGKERELVAAINSGGSTYYADSVKGRFTISRDNAKNTVFLLMNSLKPEDTAVYYCAAVYSPGRGYGYIYYYWGQGSQVTVSS”, the “polyreactivity (PSR sort gate)” value is “high polyreactivity”.

For “QVQLVESGGGLVQAGGSLRLRCAASGGIFGRYAMGWYRQAPGKERELVAAISKRGGSTYYADSVKGRFTISRDNAKNTVYLLMNSLKPEDTAVYYCNASQSVELGYDYLGQGTQVTVSS”, the “polyreactivity (PSR sort gate)” value is on record as “high polyreactivity”.

In the case of “QVQLVESGGGLVQAGGSLRLRCAASGGIFSIYAMGWYRQAPGKERELVAAISTSGGSTYYADSVKARFTISRDNAKNTVYLQMNSLKPEDTAVYYCNARSQQWWLSRYNYWGQGTQVTVSS”, the “polyreactivity (PSR sort gate)” value was “high polyreactivity”.

As for “QVQLVESGGGLVQAGGSLRLRCAASGGIINWYAMGWYRQAQGKERELVAAISWRTTSTYYADSVKGRFTISRDTAKNTVYLQMNCLKPEDTAVYYCYASGEVLAAVVTYDYWGQGTQVTVSS”, the “polyreactivity (PSR sort gate)” value is recorded as “low polyreactivity”.

Regarding “QVQLVESGGGLVQAGGSLRLRCAASGLIFAEYAIGWYRQAPGKERELVARITSGGSTDYADSVKGRFTISRDNAKNTVYLQMNSLKPEDTAVYYCAARYYSQDKNASTASDFDYWGQGTQVTVSS”, the “polyreactivity (PSR sort gate)” value was “low polyreactivity”.

In the case of “QVQLVESGGGLVQAGGSLRLRCAASGNIFGIYTMAWYRQAPGKESDFVAVISLSGTSTYYADSVKGRFTISRDNAKNTVYLQMNSLKPEDTAVYYCNARTPHNKGRRRAYDYWGQGTEVTVSS”, the “polyreactivity (PSR sort gate)” value is “high polyreactivity”.

As for “QVQLVESGGGLVQAGGSLRLRCAASGRIFGVYVMGWYRQAPGKESEFVAAISWSGSHTYYADSVKGRFTISRYNAKNTVYLQMNSLKPEDTAVYYCNADSYPDYTGPGLDWYDFWGQGTQVTVSS”, the “polyreactivity (PSR sort gate)” value is recorded as “low polyreactivity”.

On to “QVQLVESGGGLVQAGGSLRLRCAASGRIFPYYAMGWYRQSPGKERELVAAIRWSGGDTYYADSVKGRFTISRDNAKNTVYLQMNSLKPEDTAVYYCAAKAYSYSRWGYYGYYYWGQGTQVTVSS”, for which the “polyreactivity (PSR sort gate)” value was “high polyreactivity”.
